Experimental findings from US20200040059A1 are described below.

For experiment [1], the target named is PD-L1 (human) (UniProt Q9NZQ7). The experiment in a line: flow cytometry on HEK293 cells transfected with PD-L1.
The target in experiment [2] is CD28 (human) (UniProt P10747). The experiment can be described thus: flow cytometry on HEK293 cells transfected with CD28.
In experiment [3] the target is T1, TIGIT (human) (UniProt Q495A1).
T1 sequence: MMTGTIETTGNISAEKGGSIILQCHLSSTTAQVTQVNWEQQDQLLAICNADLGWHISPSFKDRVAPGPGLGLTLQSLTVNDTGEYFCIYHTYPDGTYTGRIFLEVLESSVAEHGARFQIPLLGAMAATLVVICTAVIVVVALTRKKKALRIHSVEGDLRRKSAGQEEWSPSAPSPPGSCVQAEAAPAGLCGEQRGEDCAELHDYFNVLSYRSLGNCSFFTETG
The experiment can be described thus: flow cytometry, cells expressing target, 25 nM.

Experiment [4] deals with CD112R (human) (UniProt Q6DKI7). The experiment in a line: flow cytometry, cells expressing target, 25 nM.
In experiment [5] the target is T2, CD96 (UniProt P40200).
T2 sequence (looked up): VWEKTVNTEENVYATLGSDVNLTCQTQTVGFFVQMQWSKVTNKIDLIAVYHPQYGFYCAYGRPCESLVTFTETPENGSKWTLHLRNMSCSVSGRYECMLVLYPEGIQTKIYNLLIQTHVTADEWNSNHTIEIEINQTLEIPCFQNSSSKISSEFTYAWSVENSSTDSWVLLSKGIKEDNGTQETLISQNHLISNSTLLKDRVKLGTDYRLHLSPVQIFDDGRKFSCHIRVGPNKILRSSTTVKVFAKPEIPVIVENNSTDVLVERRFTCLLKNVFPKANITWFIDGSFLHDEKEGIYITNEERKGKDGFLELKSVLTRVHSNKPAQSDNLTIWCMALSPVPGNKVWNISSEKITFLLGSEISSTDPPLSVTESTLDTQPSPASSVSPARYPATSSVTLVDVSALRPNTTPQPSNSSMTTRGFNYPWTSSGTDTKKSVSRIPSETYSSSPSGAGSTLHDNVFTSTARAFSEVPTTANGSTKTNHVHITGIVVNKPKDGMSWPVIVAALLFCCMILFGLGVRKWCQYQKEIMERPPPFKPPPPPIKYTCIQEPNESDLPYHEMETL
The experiment in a line: flow cytometry, cells expressing target, 25 nM. On the technique in general: A flow cytometer gives signals particle by particle.

The target of experiment [6] is T3, CD226 (human) (UniProt Q15762).
T3 sequence: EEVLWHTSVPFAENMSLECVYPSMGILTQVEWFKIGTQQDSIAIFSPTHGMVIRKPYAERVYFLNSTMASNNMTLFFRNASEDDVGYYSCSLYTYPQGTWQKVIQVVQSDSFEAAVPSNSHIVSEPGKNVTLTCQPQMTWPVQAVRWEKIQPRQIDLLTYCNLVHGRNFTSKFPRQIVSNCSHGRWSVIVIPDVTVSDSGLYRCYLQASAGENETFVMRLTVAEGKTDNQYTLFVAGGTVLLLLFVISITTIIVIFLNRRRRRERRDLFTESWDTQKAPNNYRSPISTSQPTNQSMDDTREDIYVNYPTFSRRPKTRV
The experiment in a line: flow cytometry, cells expressing target, 25 nM.

Experiment [7] has as its target PD-1 (Homo sapiens (Human)) (UniProt Q15116). The experiment can be described thus: flow cytometry, cells expressing PD-1.
Experiment [8] addresses CD80 (Homo sapiens (Human)) (UniProt P33681). The experiment can be described thus: flow cytometry, cells expressing CD80.

CD112R (human), sequence (Q6DKI7 whole entry): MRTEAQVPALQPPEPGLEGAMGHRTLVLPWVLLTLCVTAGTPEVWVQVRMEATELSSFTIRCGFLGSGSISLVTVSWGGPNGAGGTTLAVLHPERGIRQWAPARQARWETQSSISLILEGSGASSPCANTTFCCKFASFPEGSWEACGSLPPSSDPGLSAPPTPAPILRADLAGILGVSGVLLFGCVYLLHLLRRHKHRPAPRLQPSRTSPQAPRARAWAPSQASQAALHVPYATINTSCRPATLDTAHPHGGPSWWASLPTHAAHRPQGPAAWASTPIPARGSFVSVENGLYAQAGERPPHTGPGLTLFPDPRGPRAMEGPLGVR
PD-L1 (human), sequence (Q9NZQ7 19-290 limits assumed): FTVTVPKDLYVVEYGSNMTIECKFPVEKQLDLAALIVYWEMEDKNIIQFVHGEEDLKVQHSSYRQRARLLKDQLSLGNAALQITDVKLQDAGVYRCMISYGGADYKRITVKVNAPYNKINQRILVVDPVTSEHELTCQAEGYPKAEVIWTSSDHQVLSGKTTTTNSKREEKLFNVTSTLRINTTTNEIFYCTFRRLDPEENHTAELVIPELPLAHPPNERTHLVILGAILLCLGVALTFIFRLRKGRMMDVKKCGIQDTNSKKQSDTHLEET

With “CD80 IgV-Fc E35D/T57I/L70Q/A71D (from UniProt P33681 35-141) (Fc fusion)”, the MFI at 22.2 nM in experiment [1] is 2420 MFI. In addition, in experiment [2], the MFI at 66.6 nM was found to be 21300 MFI.
Substance “CD80 IgV-Fc P51A/A71D (from UniProt P33681 35-141) (Fc fusion)” displayed an MFI at 22.2 nM in experiment [1] of 5530 MFI. For the same substance, the MFI at 66.6 nM in experiment [2] was determined as 4260 MFI.
“CD155 variant IgV-Fc D8G, V9I, V11A, P18T, T26M, S52P, L79P, F91S, G92A, T107L, V115A (from UniProt P15151 24-139) (Fc fusion)”: the MFI at 25 nM worked out at 52500 MFI in experiment [3], 817 MFI in experiment [4] and 97800 MFI in experiment [5].
In the case of “CD155 variant IgV-Fc P18F, E51V, S54G, Q60R, L79Q, E82G, S87T, M90I, F91S, G92R, T107M (from UniProt P15151 24-139) (Fc fusion)”, the MFI at 25 nM in experiment [3] stood at 46100 MFI; in experiment [4] it was 1010 MFI; in experiment [5], 61800 MFI; in experiment [6] it was 15700 MFI.
Take “CD155 variant IgV-Fc P18F, H40Q, T61K, Q62K, L79P, F91S, L104M, T107V (from UniProt P15151 24-139) (Fc fusion)”: the MFI at 25 nM in experiment [3] came to 108000 MFI; in experiment [4], 918 MFI; in experiment [6] it was 853 MFI.
In the case of “CD155 variant IgV-Fc P18S, H59N, V75A, L79P, A81T, F91S, L104M, T107M (from UniProt P15151 24-139) (Fc fusion)”, the MFI at 25 nM in experiment [3] is 800 MFI; in experiment [4] it was 915 MFI; in experiment [5], 759 MFI; in experiment [6], 676 MFI.
The matching figures for “CD155 variant IgV-Fc P18S, K70R, L79P, F91S, G111R (from UniProt P15151 24-139) (Fc fusion)”: 16200 MFI, 854 MFI, 1180 MFI and 793 MFI.
For “CD155 variant IgV-Fc P18T, G19D, M36T, S54N, L79P, L83Q, F91S, T107M, F108Y (from UniProt P15151 24-139) (Fc fusion)”, in that order: 905 MFI, 1280 MFI, 726 MFI and 748 MFI.
For “CD155 variant IgV-Fc P18T, M55L, T61R, L79P, F91S, V106I, T107M (from UniProt P15151 24-139) (Fc fusion)”, the MFI at 25 nM came out at 133000 MFI in experiment [3], 827 MFI in experiment [4], 57900 MFI in experiment [5] and 1910 MFI in experiment [6].
For “CD155 variant IgV-Fc P18T, T39S, S52P, S54R, L79P, F91S, T107M (from UniProt P15151 24-139) (Fc fusion)”, in that order: 45900 MFI, 1040 MFI, 1220 MFI and 744 MFI.
Take “CD155 variant IgV-Fc P18T, W46C, H49R, S65A, S67V, A76T, L79P, S87T, L104M (from UniProt P15151 24-139) (Fc fusion)”: the MFI at 25 nM in experiment [3] was found to be 918 MFI; in experiment [4], 803 MFI; in experiment [5], 717 MFI; in experiment [6] it was 640 MFI.
As for “CD155 variant IgV-Fc V9A, P18S, M36T, S65G, L79P, F91S, L104T, G111R, S112I (from UniProt P15151 24-139) (Fc fusion)”, the MFI at 25 nM in experiment [3] stood at 92500 MFI; in experiment [4], 886 MFI; in experiment [6], 989 MFI.
Regarding “CD155 variant IgV-Fc V9I, P18F, A47E, G50S, E68G, L79P, F91S, T107M (from UniProt P15151 24-139) (Fc fusion)”, the MFI at 25 nM was found to be 55200 MFI in experiment [3], 752 MFI in experiment [4], 102000 MFI in experiment [5] and 54300 MFI in experiment [6].
Take “CD155 variant IgV-Fc V9L, P18L, M55V, S69L, L79P, A81E, F91S, T107M (from UniProt P15151 24-139) (Fc fusion)”: the figures for the MFI at 25 nM in experiment [3], in experiment [4] and in experiment [5] were 58700 MFI, 920 MFI and 67400 MFI, respectively.
With “CD155 variant IgV-Fc V9L, V11M, P18S, N35S, S54G, Q62K, L79P, L104M, T107M, V115M (from UniProt P15151 24-139) (Fc fusion)”, the MFI at 25 nM worked out at 3000 MFI in experiment [3], 893 MFI in experiment [4], 925 MFI in experiment [5] and 2320 MFI in experiment [6].
Turning to “CD155 variant IgV-Fc V10F, T15S, P18L, R48Q, L79P, F91S, T107M, V115M (from UniProt P15151 24-139) (Fc fusion)”, the MFI at 25 nM in experiment [3] is 1170 MFI; in experiment [4], 901 MFI; in experiment [5], 998 MFI; in experiment [6] it was 792 MFI.
For the substance “CD155 variant IgV-Fc V10G, P18T, L72Q, L79P, F91S, T107M (from UniProt P15151 24-139) (Fc fusion)”, the MFI at 25 nM in experiment [3] was determined as 4250 MFI; in experiment [4], 863 MFI; in experiment [5] it was 3640 MFI.
Take “CD155 variant IgV-Fc V11A, P18F, D23A, L79P, G80D, V95A, T107M (from UniProt P15151 24-139) (Fc fusion)”: the MFI at 25 nM in experiment [3] came out at 45200 MFI; in experiment [4], 830 MFI; in experiment [5], 33900 MFI; in experiment [6] it was 913 MFI.
As to CTLA4-Fc (Fc fusion), the MFI at 20 nM in experiment [7] was determined as 59; in experiment [8], 200000.
Regarding Fc Control, the figures for the MFI at 20 nM in experiment [7] and in experiment [8] were 59 and 132, respectively.
The substance “variant PD-L1 ECD-Fc G15A, I36T, M97L, K111E, H202Q (from UniProt Q9NZQ7 19-238) (Fc fusion)” registered an MFI at 20 nM in experiment [7] of 112.
As for “variant PD-L1 ECD-Fc G15A, I36T, V129D (from UniProt Q9NZQ7 19-238) (Fc fusion)”, the MFI at 20 nM in experiment [7] turned out to be 114; in experiment [8], 136.
In experiment [7], “variant PD-L1 ECD-Fc G15A, I36T, V129D, R195G (from UniProt Q9NZQ7 19-238) (Fc fusion)” came in with an MFI at 20 nM of 125.
In the case of “variant PD-L1 ECD-Fc I36S, M41K, M97L, K144Q, R195G, E200K, H202Q, L206F (Fc fusion)”, the MFI at 20 nM turned out to be 3500 in experiment [7] and 68700 in experiment [8].
For “variant PD-L1 ECD-Fc I36T, I83T, M97L, K144E, P198T (Fc fusion)”, the MFI at 20 nM in experiment [7] turned out to be 62; in experiment [8], 6220.
With “variant PD-L1 ECD-Fc I36T, M97L, A103V, Q155H (from UniProt Q9NZQ7 19-238) (Fc fusion)”, the MFI at 20 nM in experiment [7] was determined as 120; in experiment [8], 128.
For “variant PD-L1 ECD-Fc I36T, M97L, Q155H, F193S, N201Y (Fc fusion)”, in that order: 69 and 1250.
The matching figures for “variant PD-L1 ECD-Fc K28I, S99G (Fc fusion)”: 830 and 693.
For “variant PD-L1 ECD-Fc L35P, I36S, M97L, K111E (from UniProt Q9NZQ7 19-238) (Fc fusion)”, in that order: 190 and 155.
For the substance “variant PD-L1 ECD-Fc M18I, I36T, E53G, M97L, K144E, E199G, V207A (from UniProt Q9NZQ7 19-238) (Fc fusion)”, the results for the MFI at 20 nM in experiment [7] and in experiment [8] were 104 and 47400, respectively.
“variant PD-L1 ECD-Fc M18V, M97L, F193S, R195G, E200K, H202Q (from UniProt Q9NZQ7 19-238) (Fc fusion)”: in experiment [7], the MFI at 20 nM stood at 69.
“variant PD-L1 ECD-Fc Y10F, M18V, S99G, Q138R, T203A (from UniProt Q9NZQ7 19-238) (Fc fusion)”: the MFI at 20 nM in experiment [7] was 70; in experiment [8], 412.
